This passage reports Km results from publication PMC4250932.

For this series, the system named is NC(=O)C1=CN([C@@H]2O[C@H](COP(=O)(O)OP(=O)(O)OC[C@H]3O[C@@H](n4cnc5c(N)ncnc54)[C@H](OP(=O)(O)O)[C@@H]3O)[C@@H](O)[C@H]2O)C=CC1. As to the kind of experiment: purified protein. Particulars: varied: cofactor.

The term Km denotes the concentration of substrate that gives half-maximal velocity. For the substance “RmlD (dTDP-6-deoxy-L-lyxo-4-hexulose reductase) (Mycobacterium tuberculosis H37Rv)”, the Km came to 12.5 µM.
